By Kd is commonly meant the constant that tells how readily two partners part at equilibrium. A higher Kd goes with weaker binding. One may read the koff as a measure of how fast the partners let go of each other. The low end stands for slow dissociation, the high end for fast dissociation.

Consider one molecule from publication PMC7642358 (2020).

In test [1] the target is T1, SARS-CoV-2 spike receptor-binding domain (2019-nCoV RBD-SD1, residues 319–566) (SARS-CoV-2, UniProt P0DTC2 319-566, chemically biotinylated with NHS-PEG4-Biotin for selection, ELISA and BLI). Briefly: BLI.
In test [2] the target is T1, SARS-CoV-2 spike receptor-binding …. Briefly: BLI. The source holds these as a separate data set.

B1: Sb23-Fc (Sb23 fused to the Fc domain from human IgG) (Fc fusion)
chain: QVQLVESGGGLVQAGGSLRLSCAASGFPVESENMHWYRQAPGKEREWVAAIYSTGGWTLYADSVKGRFTISRDNAKNTVYLQMNSLKPEDTAVYYCAVQVGYWYEGQGTQVTVS
As to B1, in test [1], the Kd came out at 0.225 nM. In addition, in test [2], the koff amounted to 7.1e-05 s⁻¹.
